Values joined by “and” are separate entries in the source; they are usually repeats but may differ in a detail not shown here. Equal entries are not always repeated.

Test [1] deals with the remaining proteins (α-actinin, afadin, band 4.1B, Scrib, and ZO-1). Put plainly: co-IP.
The target of test [2] is T1, RFP-Lats1 (UniProt O95835 1-1130).
T1 sequence (looked up): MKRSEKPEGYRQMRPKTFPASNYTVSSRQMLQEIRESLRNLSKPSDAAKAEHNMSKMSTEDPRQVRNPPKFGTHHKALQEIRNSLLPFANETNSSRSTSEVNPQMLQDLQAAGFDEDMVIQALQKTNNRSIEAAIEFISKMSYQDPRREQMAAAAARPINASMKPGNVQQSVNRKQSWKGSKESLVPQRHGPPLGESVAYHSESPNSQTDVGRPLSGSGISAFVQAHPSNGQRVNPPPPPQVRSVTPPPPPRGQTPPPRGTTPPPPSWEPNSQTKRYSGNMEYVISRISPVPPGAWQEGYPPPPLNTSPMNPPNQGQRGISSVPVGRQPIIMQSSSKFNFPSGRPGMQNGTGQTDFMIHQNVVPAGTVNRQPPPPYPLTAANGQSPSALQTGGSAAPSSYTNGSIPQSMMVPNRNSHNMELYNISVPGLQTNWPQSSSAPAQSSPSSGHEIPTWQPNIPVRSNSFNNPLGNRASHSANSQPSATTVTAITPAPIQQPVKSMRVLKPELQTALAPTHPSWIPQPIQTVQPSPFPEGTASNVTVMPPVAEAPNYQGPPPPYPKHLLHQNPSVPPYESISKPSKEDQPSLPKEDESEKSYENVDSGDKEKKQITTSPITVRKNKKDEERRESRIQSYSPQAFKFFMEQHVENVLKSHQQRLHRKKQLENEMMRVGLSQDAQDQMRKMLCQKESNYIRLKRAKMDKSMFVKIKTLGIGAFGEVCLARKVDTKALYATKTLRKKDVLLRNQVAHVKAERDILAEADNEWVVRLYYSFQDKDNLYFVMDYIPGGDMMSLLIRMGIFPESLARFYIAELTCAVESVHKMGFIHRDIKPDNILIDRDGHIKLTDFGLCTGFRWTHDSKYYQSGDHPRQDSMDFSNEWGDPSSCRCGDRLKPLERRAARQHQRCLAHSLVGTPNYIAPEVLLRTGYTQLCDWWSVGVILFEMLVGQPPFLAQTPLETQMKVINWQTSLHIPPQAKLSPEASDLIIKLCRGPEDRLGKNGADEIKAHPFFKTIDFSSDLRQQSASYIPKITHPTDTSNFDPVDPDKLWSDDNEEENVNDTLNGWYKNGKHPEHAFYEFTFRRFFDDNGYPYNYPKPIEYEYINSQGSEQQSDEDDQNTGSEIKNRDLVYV
Put plainly: pull-down.

Test [3] addresses T2, RFP-ASPP2 (UniProt Q13625 1-1128).
T2 sequence (looked up): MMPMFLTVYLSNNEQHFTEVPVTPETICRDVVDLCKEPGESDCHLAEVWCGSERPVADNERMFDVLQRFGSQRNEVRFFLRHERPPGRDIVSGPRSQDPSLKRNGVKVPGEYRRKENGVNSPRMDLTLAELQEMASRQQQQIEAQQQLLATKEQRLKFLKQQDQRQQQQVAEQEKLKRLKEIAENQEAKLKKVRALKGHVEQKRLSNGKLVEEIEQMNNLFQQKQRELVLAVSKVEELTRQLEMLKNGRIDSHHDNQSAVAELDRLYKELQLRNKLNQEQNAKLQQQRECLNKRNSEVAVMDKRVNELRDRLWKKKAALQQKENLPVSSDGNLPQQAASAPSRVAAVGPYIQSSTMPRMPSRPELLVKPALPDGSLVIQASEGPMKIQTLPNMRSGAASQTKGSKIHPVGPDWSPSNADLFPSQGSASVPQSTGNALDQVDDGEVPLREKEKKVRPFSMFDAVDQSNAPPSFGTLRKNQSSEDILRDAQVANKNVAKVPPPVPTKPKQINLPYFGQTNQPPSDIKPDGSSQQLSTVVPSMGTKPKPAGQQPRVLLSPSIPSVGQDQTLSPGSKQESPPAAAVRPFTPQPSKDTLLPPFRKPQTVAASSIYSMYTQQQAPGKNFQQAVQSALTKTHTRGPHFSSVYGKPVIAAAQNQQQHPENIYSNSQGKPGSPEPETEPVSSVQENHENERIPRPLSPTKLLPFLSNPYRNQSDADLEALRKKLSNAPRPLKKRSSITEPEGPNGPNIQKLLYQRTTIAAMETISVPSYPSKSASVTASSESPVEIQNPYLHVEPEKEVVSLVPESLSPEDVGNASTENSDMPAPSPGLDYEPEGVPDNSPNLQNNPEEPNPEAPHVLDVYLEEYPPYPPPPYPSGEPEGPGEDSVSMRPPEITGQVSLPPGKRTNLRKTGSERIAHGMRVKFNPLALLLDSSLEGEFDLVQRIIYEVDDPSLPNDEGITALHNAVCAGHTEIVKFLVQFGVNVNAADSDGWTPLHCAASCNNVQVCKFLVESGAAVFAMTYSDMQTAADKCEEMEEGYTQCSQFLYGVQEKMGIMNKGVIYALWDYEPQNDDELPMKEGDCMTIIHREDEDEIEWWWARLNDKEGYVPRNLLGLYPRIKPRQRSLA
Put plainly: pull-down.

Test [4] deals with RFP-Angiomotin, Q4VCS5. The test is described as follows: pull-down. Particulars: remark: other sources report otherwise.
Chain of RFP-Angiomotin, Q4VCS5 (Q4VCS5 whole entry): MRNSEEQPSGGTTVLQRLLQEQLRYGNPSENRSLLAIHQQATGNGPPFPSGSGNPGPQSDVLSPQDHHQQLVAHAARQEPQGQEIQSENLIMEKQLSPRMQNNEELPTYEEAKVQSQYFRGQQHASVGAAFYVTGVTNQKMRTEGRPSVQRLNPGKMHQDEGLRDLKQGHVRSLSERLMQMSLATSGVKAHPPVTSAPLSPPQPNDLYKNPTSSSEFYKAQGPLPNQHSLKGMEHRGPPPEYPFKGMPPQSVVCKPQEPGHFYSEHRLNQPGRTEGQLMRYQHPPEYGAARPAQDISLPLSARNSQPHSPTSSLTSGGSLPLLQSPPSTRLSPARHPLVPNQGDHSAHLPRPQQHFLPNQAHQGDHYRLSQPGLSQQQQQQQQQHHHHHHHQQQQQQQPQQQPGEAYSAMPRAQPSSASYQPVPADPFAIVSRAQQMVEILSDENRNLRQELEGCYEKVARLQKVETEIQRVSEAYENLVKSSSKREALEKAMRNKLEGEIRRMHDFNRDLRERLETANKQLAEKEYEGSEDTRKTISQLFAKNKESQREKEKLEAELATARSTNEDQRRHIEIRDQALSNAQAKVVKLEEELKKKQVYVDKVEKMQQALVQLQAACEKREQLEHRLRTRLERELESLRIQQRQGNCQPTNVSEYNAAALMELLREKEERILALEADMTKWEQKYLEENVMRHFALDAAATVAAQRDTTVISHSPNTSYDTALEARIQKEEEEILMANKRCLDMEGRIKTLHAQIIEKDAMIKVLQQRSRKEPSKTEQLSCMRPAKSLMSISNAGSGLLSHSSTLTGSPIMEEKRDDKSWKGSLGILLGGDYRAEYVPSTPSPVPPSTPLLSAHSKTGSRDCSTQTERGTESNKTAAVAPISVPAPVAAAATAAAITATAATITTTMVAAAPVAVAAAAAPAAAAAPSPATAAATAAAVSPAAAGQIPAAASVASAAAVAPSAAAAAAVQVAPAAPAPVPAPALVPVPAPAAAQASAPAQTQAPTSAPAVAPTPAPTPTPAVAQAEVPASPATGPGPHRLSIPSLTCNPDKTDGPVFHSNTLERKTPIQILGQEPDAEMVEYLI
Test [5] addresses T1, RFP-Lats1. The test is described as follows: co-IP.
In test [6] the target is RFP-Angiomotin, Q4VCS5. The test is described as follows: co-IP. The settings on record: remark: other sources report otherwise.
Test [7] has as its target T2, RFP-ASPP2. The test is described as follows: pull-down. This is another data set of the same source.

Consider “Merlin-NLuc (from UniProt P35240 1-595) (natural protein)”, for which the fold over the negative control (RFP alone), co-precipitated luciferase in test [1] was 2 fold and 5 fold.

B1: Merlin-NLuc (natural protein, UniProt P35240 1-595, looked up)
chain: MAGAIASRMSFSSLKRKQPKTFTVRIVTMDAEMEFNCEMKWKGKDLFDLVCRTLGLRETWFFGLQYTIKDTVAWLKMDKKVLDHDVSKEEPVTFHFLAKFYPENAEEELVQEITQHLFFLQVKKQILDEKIYCPPEASVLLASYAVQAKYGDYDPSVHKRGFLAQEELLPKRVINLYQMTPEMWEERITAWYAEHRGRARDEAEMEYLKIAQDLEMYGVNYFAIRNKKGTELLLGVDALGLHIYDPENRLTPKISFPWNEIRNISYSDKEFTIKPLDKKIDVFKFNSSKLRVNKLILQLCIGNHDLFMRRRKADSLEVQQMKAQAREEKARKQMERQRLAREKQMREEAERTRDELERRLLQMKEEATMANEALMRSEETADLLAEKAQITEEEAKLLAQKAAEAEQEMQRIKATAIRTEEEKRLMEQKVLEAEVLALKMAEESERRAKEADQLKQDLQEAREAERRAKQKLLEIATKPTYPPMNPIPAPLPPDIPSFNLIGDSLSFDFKDTDMKRLSMEIEKEKVEYMEKSKHLQEQLNELKTEIEALKLKERETALDILHNENSDRGGSSKHNTIKKLTLQSAKSRVAFFEEL
As for B1, the “fold over the negative control (RFP alone), bound luciferase” value in test [2] stood at 268 fold; in test [3], 125 fold; in test [4], 2300 fold. The “fold over the negative control (RFP alone), co-precipitated luciferase” value in test [5] is over 20 fold; in test [6] it was 100 fold.

B2: Merlin S518D (natural protein, UniProt P35240 1-595, looked up)
chain: MAGAIASRMSFSSLKRKQPKTFTVRIVTMDAEMEFNCEMKWKGKDLFDLVCRTLGLRETWFFGLQYTIKDTVAWLKMDKKVLDHDVSKEEPVTFHFLAKFYPENAEEELVQEITQHLFFLQVKKQILDEKIYCPPEASVLLASYAVQAKYGDYDPSVHKRGFLAQEELLPKRVINLYQMTPEMWEERITAWYAEHRGRARDEAEMEYLKIAQDLEMYGVNYFAIRNKKGTELLLGVDALGLHIYDPENRLTPKISFPWNEIRNISYSDKEFTIKPLDKKIDVFKFNSSKLRVNKLILQLCIGNHDLFMRRRKADSLEVQQMKAQAREEKARKQMERQRLAREKQMREEAERTRDELERRLLQMKEEATMANEALMRSEETADLLAEKAQITEEEAKLLAQKAAEAEQEMQRIKATAIRTEEEKRLMEQKVLEAEVLALKMAEESERRAKEADQLKQDLQEAREAERRAKQKLLEIATKPTYPPMNPIPAPLPPDIPSFNLIGDSLSFDFKDTDMKRLDMEIEKEKVEYMEKSKHLQEQLNELKTEIEALKLKERETALDILHNENSDRGGSSKHNTIKKLTLQSAKSRVAFFEEL
For the molecule B2, the “fold less than binding to wild-type Merlin” value in test [7] is over 2 fold.

B3: Merlin S518A (natural protein, UniProt P35240 1-595, looked up)
chain: MAGAIASRMSFSSLKRKQPKTFTVRIVTMDAEMEFNCEMKWKGKDLFDLVCRTLGLRETWFFGLQYTIKDTVAWLKMDKKVLDHDVSKEEPVTFHFLAKFYPENAEEELVQEITQHLFFLQVKKQILDEKIYCPPEASVLLASYAVQAKYGDYDPSVHKRGFLAQEELLPKRVINLYQMTPEMWEERITAWYAEHRGRARDEAEMEYLKIAQDLEMYGVNYFAIRNKKGTELLLGVDALGLHIYDPENRLTPKISFPWNEIRNISYSDKEFTIKPLDKKIDVFKFNSSKLRVNKLILQLCIGNHDLFMRRRKADSLEVQQMKAQAREEKARKQMERQRLAREKQMREEAERTRDELERRLLQMKEEATMANEALMRSEETADLLAEKAQITEEEAKLLAQKAAEAEQEMQRIKATAIRTEEEKRLMEQKVLEAEVLALKMAEESERRAKEADQLKQDLQEAREAERRAKQKLLEIATKPTYPPMNPIPAPLPPDIPSFNLIGDSLSFDFKDTDMKRLAMEIEKEKVEYMEKSKHLQEQLNELKTEIEALKLKERETALDILHNENSDRGGSSKHNTIKKLTLQSAKSRVAFFEEL
Turning to B3, the “fold greater than binding to wild-type Merlin” value in test [7] is about 2 fold.
